According to article PMC4131897 (Biochemistry, 2014):

T1: BjPutA (proline utilization A) (Bradyrhizobium diazoefficiens, UniProt Q89E26)
T1 sequence (Q89E26 1-999): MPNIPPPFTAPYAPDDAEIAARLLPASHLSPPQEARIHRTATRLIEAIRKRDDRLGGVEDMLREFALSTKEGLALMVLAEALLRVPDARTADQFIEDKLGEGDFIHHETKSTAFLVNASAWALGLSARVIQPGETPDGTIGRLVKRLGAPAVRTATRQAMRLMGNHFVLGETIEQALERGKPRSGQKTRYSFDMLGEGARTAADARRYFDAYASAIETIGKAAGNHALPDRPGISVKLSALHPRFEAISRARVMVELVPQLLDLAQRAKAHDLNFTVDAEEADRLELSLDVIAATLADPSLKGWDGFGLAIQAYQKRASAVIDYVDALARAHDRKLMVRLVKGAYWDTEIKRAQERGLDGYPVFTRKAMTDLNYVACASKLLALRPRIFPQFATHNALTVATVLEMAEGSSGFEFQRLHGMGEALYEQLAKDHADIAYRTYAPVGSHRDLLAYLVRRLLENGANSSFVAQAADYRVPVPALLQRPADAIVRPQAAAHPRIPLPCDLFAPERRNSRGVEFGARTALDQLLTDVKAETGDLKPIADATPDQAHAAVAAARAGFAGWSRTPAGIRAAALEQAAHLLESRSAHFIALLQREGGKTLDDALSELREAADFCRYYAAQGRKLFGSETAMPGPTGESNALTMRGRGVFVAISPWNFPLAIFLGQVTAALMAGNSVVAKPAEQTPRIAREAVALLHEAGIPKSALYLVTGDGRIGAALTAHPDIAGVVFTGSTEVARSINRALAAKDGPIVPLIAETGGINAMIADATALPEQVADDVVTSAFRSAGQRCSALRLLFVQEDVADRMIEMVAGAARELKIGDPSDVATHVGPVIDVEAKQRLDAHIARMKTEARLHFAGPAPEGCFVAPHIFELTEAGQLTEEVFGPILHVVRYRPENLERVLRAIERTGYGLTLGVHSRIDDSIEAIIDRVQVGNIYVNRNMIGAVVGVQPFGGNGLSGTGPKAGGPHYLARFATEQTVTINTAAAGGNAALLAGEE

B1: BjPutA (proline utilization A) (Bradyrhizobium diazoefficiens USDA 110) (protein)
chain: T1 sequence (Q89E26 1-999)

Experiments:
[1] = target: T1, BjPutA (proline utilization A); assay: coupled PRODH-P5CDH assay, NADH formation at […] nm, substrate inhibition fit; assay type: biochemical; conditions: 0.1 mM CoQ1, 0.2 mM NAD+, 50 mM potassium phosphate pH 7.5, 25 mM NaCl
[2] = substrate: O=C(O)[C@@H]1CCCN1; assay: purified protein; conditions: 250 μM CoQ1, 50 mM potassium phosphate pH 7.5, 23 °C
[3] = substrate: COC1=C(OC)C(=O)C(CC=C(C)C)=C(C)C1=O; assay: purified protein; conditions: 150 mM proline, 50 mM potassium phosphate pH 7.5, 23 °C

| Ki [1] [mM] | Molecule | Km [2] [mM] | kcat [2] [s⁻¹] | kcat/Km [2] [M⁻¹ s⁻¹] | Km [3] [µM] | kcat [3] [s⁻¹] | kcat/Km [3] [M⁻¹ s⁻¹] |
| --- | --- | --- | --- | --- | --- | --- | --- |
| 24 ± 12 | O=C(O)[C@@H]1CCCN1 [proline] |  |  |  |  |  |  |
|  | B1 | 43 ± 5 | 3.1 ± 0.1 | 72 ± 8.6 | 105 ± 6 | 2.9 ± 0.1 | 27600 ± 1710 |
